Values quoted from earlier work in PMC7764831.

Target: p53 (Homo sapiens) (UniProt P04637)
Sequence (P04637 whole entry): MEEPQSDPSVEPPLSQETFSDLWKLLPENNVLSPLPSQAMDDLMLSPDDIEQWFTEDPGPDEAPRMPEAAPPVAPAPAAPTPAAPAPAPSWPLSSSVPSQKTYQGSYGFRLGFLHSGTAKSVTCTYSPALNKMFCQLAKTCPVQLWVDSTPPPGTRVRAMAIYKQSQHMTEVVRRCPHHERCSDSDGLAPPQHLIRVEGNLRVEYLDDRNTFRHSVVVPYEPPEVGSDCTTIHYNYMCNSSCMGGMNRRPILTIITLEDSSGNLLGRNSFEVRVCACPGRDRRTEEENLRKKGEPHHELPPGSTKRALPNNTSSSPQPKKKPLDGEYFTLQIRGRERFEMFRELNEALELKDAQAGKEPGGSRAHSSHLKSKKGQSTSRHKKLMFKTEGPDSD

Azurin, sequence (P00282 21-148): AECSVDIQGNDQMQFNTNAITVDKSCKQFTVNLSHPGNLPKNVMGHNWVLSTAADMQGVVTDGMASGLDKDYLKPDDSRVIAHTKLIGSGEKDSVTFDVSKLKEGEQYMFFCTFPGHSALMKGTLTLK

For Azurin (from UniProt P00282), the Kd is given as 6 µM.
